Test results from publication PMC10980163, “Integrin-linked kinase-frizzled 7 interaction maintains cancer stem cells to drive platinum resistance in ovarian cancer” (Research Square, 2024).

Molecular target: T1, recombinant human full length Fzd7 (human, UniProt O75084 33-574)
T1 construct: also called full-length recombinant Fzd7
Test: co-IP; recombinant human full-length Fzd7 and ILK mixed 1:1 in lysis buffer, incubated overnight at 4 °C with antibody (anti-Fzd7 in Fig. 4D); Western blot for ILK and Fzd7
Conditions: both partners purified

- binding result: binds
B1: recombinant human full-length ILK (enzyme, UniProt Q13418 1-452, looked up)
chain: MDDIFTQCREGNAVAVRLWLDNTENDLNQGDDHGFSPLHWACREGRSAVVEMLIMRGARINVMNRGDDTPLHLAASHGHRDIVQKLLQYKADINAVNEHGNVPLHYACFWGQDQVAEDLVANGALVSICNKYGEMPVDKAKAPLRELLRERAEKMGQNLNRIPYKDTFWKGTTRTRPRNGTLNKHSGIDFKQLNFLTKLNENHSGELWKGRWQGNDIVVKVLKVRDWSTRKSRDFNEECPRLRIFSHPNVLPVLGACQSPPAPHPTLITHWMPYGSLYNVLHEGTNFVVDQSQAVKFALDMARGMAFLHTLEPLIPRHALNSRSVMIDEDMTARISMADVKFSFQCPGRMYAPAWVAPEALQKKPEDTNRRSADMWSFAVLLWELVTREVPFADLSNMEIGMKVALEGLRPTIPPGISPHVCKLMKICMNEDPAKRPKFDMIVPILEKMQDK
notes: Integrin-linked kinase (ILK), human, recombinant, full length; also called full-length recombinant ILK
